This is an account of results in IntAct's records for PubMed 27013965.

The experiment deals with lrp6_human LRP6 (UniProt O75581).
Sequence of UniProt O75581 (O75581 whole entry): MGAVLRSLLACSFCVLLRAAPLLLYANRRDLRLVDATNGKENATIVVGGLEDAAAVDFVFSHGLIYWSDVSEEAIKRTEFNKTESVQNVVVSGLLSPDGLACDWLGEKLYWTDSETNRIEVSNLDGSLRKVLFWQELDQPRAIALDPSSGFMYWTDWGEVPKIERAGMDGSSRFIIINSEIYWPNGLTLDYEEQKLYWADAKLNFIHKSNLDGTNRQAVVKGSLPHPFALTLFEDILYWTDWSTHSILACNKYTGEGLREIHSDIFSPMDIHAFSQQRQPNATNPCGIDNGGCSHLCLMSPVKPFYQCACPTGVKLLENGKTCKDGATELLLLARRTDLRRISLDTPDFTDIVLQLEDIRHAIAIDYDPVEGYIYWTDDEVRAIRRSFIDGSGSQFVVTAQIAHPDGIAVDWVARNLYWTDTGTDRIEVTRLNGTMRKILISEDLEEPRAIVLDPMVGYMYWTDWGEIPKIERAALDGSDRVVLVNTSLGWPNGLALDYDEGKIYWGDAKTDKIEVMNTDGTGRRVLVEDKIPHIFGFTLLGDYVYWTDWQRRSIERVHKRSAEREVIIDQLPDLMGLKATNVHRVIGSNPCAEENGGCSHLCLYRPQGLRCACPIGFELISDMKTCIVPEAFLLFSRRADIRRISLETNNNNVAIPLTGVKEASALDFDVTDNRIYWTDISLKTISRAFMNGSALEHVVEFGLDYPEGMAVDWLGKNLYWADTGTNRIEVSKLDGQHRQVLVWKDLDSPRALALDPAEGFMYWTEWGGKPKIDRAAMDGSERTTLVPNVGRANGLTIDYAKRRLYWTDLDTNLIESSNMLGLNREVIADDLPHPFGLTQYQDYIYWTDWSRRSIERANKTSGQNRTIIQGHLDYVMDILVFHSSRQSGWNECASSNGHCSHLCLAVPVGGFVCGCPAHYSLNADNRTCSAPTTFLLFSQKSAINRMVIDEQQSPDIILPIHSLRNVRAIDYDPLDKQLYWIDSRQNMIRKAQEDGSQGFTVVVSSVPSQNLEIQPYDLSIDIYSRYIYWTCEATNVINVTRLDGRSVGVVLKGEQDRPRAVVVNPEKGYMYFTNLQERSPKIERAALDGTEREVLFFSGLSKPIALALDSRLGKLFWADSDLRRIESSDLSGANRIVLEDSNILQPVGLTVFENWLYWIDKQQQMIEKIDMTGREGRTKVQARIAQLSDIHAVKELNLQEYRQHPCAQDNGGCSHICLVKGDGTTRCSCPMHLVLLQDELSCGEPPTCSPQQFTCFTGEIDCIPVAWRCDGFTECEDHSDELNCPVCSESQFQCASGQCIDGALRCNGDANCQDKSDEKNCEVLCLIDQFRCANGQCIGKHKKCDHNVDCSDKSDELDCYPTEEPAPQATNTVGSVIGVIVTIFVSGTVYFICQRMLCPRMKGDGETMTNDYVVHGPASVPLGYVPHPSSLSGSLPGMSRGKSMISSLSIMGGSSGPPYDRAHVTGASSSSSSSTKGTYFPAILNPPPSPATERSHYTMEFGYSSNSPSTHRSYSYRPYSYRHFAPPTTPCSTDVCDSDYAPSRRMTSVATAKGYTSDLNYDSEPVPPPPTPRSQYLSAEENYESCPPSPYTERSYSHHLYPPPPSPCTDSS

For “Leucine-rich repeat serine/threonine-protein kinase 2 (Homo sapiens), Q5S007 R1398H”, the “effect of a mutation on the interaction” value is listed as “decreasing interaction strength”.

Consider “Leucine-rich repeat serine/threonine-protein kinase 2 (Homo sapiens), Q5S007 R1441G”, for which the “effect of a mutation on the interaction” value is “decreasing interaction strength”.
